Values quoted from earlier work as cited in paper PMC7616283.

Biological target: CCR8 (Homo sapiens) (UniProt P51685)
Sequence (P51685 whole entry): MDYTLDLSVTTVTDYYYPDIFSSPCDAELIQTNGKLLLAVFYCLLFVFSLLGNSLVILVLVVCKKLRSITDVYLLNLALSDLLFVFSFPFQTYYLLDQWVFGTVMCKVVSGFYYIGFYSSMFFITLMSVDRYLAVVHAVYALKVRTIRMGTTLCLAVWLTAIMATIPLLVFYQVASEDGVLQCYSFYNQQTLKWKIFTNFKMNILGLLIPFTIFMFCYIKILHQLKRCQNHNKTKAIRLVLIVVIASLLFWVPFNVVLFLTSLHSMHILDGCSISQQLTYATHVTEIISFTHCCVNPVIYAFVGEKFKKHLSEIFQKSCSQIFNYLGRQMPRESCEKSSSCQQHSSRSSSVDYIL

Chain of CCL18 (P55774 24-89): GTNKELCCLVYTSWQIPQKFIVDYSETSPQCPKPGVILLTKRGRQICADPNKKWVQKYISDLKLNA

Kd: 1.9 nM
Substance: CCL18 (from UniProt P55774)
